Laboratory results published in patent US9603922B2, “Modulation of NKT cell activity with antigen-loaded CD1d molecules” (VACCINEX, INC., priority 2007, dated 2017).

B1: αGalCer/sCD1d: soluble monomeric mouse β2m-CD1d, His-tagged, loaded with αGalCer (protein)
chain: IQKTPQIQVYSRHPPENGKPNILNCYVTQFHPPHIEIQMLKNGKKIPKVEMSDMSFSKDWSFYILAHTEFTPTETDTYACRVKHASMAEPKTVYWDRDMGGGGSGGSGSGGGSEAQQKNYTFRCLQMSSFANRSWSRTDSVVWLGDLQTHRWSNDSATISFTKPWSQGKLSNQQWEKLQHMFQVYRVSFTRDIQELVKMMSPKEDYPIEIQLSAGCEMYPGNASESFLHVAFQGKYVVRFWGTSWQTVPGAPSWLDLPIKVLNADQGTSATVQMLLNDTCPLFVRGLLEAGKSDLEKQEKPVAWLSSVPSSADGHRQLVCHVSGFYPKPVWVMWMRGDQEQQGTHRGDFLPNADETWYLQATLDVEAGEEAGLACRVKHSSLGGQDIILYWSSGSGGHHHHHH

Tests used:
B16 wild type cells = assay: Precoating experiment, lung metastases of B16 wild type cells; assay type: in vivo, mouse; settings: cells pre-incubated with agent, injected i.v. into naïve mice
Protocol: FIG. 5: Precoating experiment.
(§1) Quantification of lung metastasis. Metastatic nodule surface area was measured on 2560×1920 pixels photographs of the whole organs, taken on an Zeiss STEMI SV11 dissection microscope (Carl Zeiss, Jena, Germany) equipped with a PROGRES-C10plus Color Camera (Jenoptik, Jena, Germany). Each image was analyzed with the ImageJ program (rsb.info.nih.gov/ij/) using a k-means clustering algorithm (plugin available on ij-plugins.sourceforge.net). Images were segmented into 9 segments cluster tolerance 1×10−4, randomization seed: 48) and the appropriate segments were selected based on the color of the metastasis reaching the surface of the organ. The area of the sum of selected color segments was expressed as percentage of the area occupied by the lungs. Both sides of the lung were analyzed. This method takes into account both the number and the size of the tumor nodules. Since nodules are often heterogenous the percentage of metastatic lung surface area is a more sensitive measure of tumor growth than just counting tumor nodules.
This affect may be caused by a transient association of the αGalCer with the tumor cell surface, or by transient uptake of the free αGalCer.

B16 melanoma cells = assay: Pretreatment and B16 melanoma lung metastasis; assay type: in vivo, mouse; settings: for Lung metastasis / tumor resistance in pretreated mice: 5 i.v. pretreatments every 3 days, then 700,000 B16 cells co-injected with same agent; for Lung metastasis / tumor development in naïve mice: no pretreatment, agent co-injected with B16 cells
Protocol: FIG. 4: Sustained iNKT activation in vivo due to repeated injections of αGalCer/sCD1d prevents formation of lung metastases. Mice were treated 5 times with PBS (Control, white), αGalCer (0.4 μg, light grey), or αGalCer/sCD1d (sCD1d, 20 μg, black) and then grafted with 700,000 B16 wild type cells plus co-injection of the respective treatment. 2 naive groups were included that had no pretreatment and got only tumor cell graft+co-injection of αGalCer (striped grey) or αGalCer/sCD1d (sCD1d, dark striped grey) respectively. Lung metastases formation was analysed 2 weeks after graft with the ImageJ k-means clustering program and results are expressed as percent of black metastatic surface over total lung surface. P values for αGalCer/sCD1d pretreated and naive+αGalCer groups compared to control *P<0.04, and compared to αGalCer pretreated group *P<0.02.
as §1
This is most likely due to the anergic state of iNKT cells induced by free αGalCer. In contrast, in naïve mice, opposite results were obtained. […] The key finding is that multiple prior injections of αGalCer loaded recombinant CD1d molecules but not of free αGalCer confers resistance to tumor development.

[1] = test system: splenocytes, CD3+ T cells; assay: Conventional T cells (CD3+) in splenocyte cultures of treated mice; assay type: cell-based, mouse; settings: for Conventional T cell population of CD3+ cells, in words: in vitro stimulation of splenocyte cultures; for Percentage of CD3+ cells of total spleen cells: in vitro stimulation, 7% without stimulation
Excerpt: Cells were stained with anti NK1.1-PE and anti CD3-FITC and analysed by flow cytometry. NK cells are reported as NK1.1 positive/CD3 negative population. b c Induction of DC maturation and T cell proliferation by αGalCer/sCD1d activated NKT cells in vivo. Splenocytes were isolated after five treatments i.v. with either PBS (control), αGalCer, or αGalCer/sCD1d and cultured for 4 days with GM-CSF and then 3 more days with either PBS (control, white bars), αGalCer (grey bars), or αGalCer/sCD1d (sCD1d, black bars). Cells were then stained with anti CD11c-FITC and biotinylated anti CD40 and Streptavidin-PE to detect double positive mature DCs (c), or with anti NK1.1-PE and anti CD3-FITC to detect CD3 single positive T cells (d) by flow cytometry.
In absence of a specific antigen: Several reports have described the capacity of iNKT cells to transactivate NK, DC and T cells upon activation with free αGalCer or αGalCer-pulsed dendritic cells (Nieda, M., et al. Blood 103:383-389 (2004); Hermans, I. F., et al. J Immunol 171:5140-5147 (2003); Smyth, M. J., et al. J Exp Med 201:1973-1985 (2005)). […] Regarding NK cells, their frequency indeed increased after a single injection of free αGalCer or of αGalCer/sCD1d with or without anti HER2, as shown by the increase of the NK1.1^+ CD3^− cell population (FIG. 7a). Markers for DC maturation were also analyzed after 5 days in vitro culture of splenocytes isolated at the end of a systemic treatment, as described in Example 1. […] From 7% of total spleen cells without stimulation, percentage of CD3^+ cells increased to 17, 27 and 30%, respectively in naïve, αGalCer and αGalCer/sCD1d treated mice.

liver iNKT cells = assay: InvTCR downmodulation: disappearance of liver iNKT cells after single i.p. injection; assay type: in vivo, mouse; settings: 20 hours after single i.p. injection; αGalCer 5 μg, sCD1d 20 μg, fusion 40 μg
Protocol: Frequency of iNKT cells was measured by flow cytometry using CD1d-Tetramer-EXTRAVIDIN®-PE and anti CD3 FITC.
Generation of CD1d tetramer. For this purpose, the soluble β2m-CD1d molecule was modified at the C-terminus by the addition of a cysteine after the stretch of histidine residues. After a mild reduction with 0.5 mM β-mercaptoethanol for 30 min at 30C and purification on a PD10 desalting column, the pure recombinant protein was biotinylated on the cystein residue by the chemical coupling of a biotin-maleimide linker (EZ-linked BM, Pierce) in 2M excess overnight at RT. The excess of linker was removed by gel filtration on a SUPERDEX™S200 column (Pharmacia Biotech). The biotinylated CD1d was loaded with αGalCer as described above and was tetramerized on EXTRAVIDIN®-PE (Sigma) and resulting complex was used at 5 μg/ml for NKT cell staining.
Isolation of liver, lung and spleen lymphocytes. Mouse livers and lungs were homogenized with 100 μm strainer and lymphocytes were isolated using a PERCOLL™ density gradient (Amersham Biosciences). After two washings, cells were either re-challenged or directly analyzed by fluorescence cytometry. Spleens were homogenized with a 70 μm strainer, debris were eliminated by spontaneous sedimentation and splenocytes were recovered by centrifugation. […]

Molecule	Lung metastases of precoated B16 wild type cells (B16 wild type cells)	Lung metastasis / tumor resistance in pretreated mice (B16 melanoma cells)	Lung metastasis / tumor development in naïve mice (B16 melanoma cells)	Conventional T cell population of CD3+ cells, in words [1]	inv TCR downmodulation / disappearance of liver iNKT cells (liver iNKT cells)	Percentage of CD3+ cells of total spleen cells ([1]; splenocytes of naïve mice) [%]	Percentage of CD3+ cells of total spleen cells ([1]; splenocytes of αGalCer treated mice) [%]	Percentage of CD3+ cells of total spleen cells ([1]; splenocytes of αGalCer/sCD1d treated mice) [%]
CCCCCCCCCCCCCCCCCCCCCCCCCC(=O)N[C@@H](CO[C@H]1O[C@H](CO)[C@H](O)[C@H](O)[C@H]1O)[C@H](O)[C@H](O)CCCCCCCCCCCCCC [αGalCer, α-galactosylceramide, reference compound]	completely inhibited tumor development	not able to block lung metastasis	completely blocked tumor development	no significant effect	inv TCR downmodulation occurred			
B1	not able to block tumor growth	rendered them resistant to B16 melanoma cells	had no effect	significantly increased	transient disappearance of liver iNKT cells	17	27	30
